The values below come from patent US20070071759A1.

This experiment concerns the target T1, NKG2D receptor on NK cells freshly isolated from C57BL6 or on KY-2 cells (murine NK cell line) (murine) (UniProt O54709).
T1 sequence (looked up): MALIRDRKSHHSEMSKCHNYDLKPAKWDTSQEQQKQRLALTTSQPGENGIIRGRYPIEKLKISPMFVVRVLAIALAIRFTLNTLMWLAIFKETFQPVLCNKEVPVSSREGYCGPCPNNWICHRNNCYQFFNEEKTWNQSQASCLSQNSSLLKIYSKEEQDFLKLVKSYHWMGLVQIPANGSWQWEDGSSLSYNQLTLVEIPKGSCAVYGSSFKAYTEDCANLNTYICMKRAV
The experiment in a line: cell-based or functional assay.

In turn, “anti-HER2 IgG3-CH3-Rae-1β fusion protein (from UniProt P01860 1-377; O08603 29-229)” returned an NK cell-mediated killing (direct lysis, KY-2 effector cells) of 15 to 59% and a redirected lysis of P815 or J774 cells by KY-2 cells of less than 22%.
